From PMC10516927, “DNA-bridging by an archaeal histone variant via a unique tetramerisation interface” (Communications Biology, 2023) come the findings set out here.

Data set [1] concerns the target T1, MJ1647 (Methanocaldococcus jannaschii, UniProt Q59041 1-96).
T1 sequence: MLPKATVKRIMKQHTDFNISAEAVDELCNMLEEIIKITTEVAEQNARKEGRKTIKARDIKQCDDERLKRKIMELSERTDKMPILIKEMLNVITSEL
The data set can be described thus: DNA-bridging pull-down. To be noted: EMSA: 50 nM DNA, 10 mM Tris/HCl pH 8.0, 222 mM NaCl, 0.4 mM TCEP, 0.1 mg/ml BSA, 5% glycerol, 37 C 15 min; agarose EMSA: same with 110 mM NaCl, no glycerol …. (In general: Mobility shift assays separate free from complexed probe on a gel.)

For data set [2], the target named is MJ1647ΔTM, deletion variant of MJ1647 lacking the C-terminal 27 amino acids (Methanocaldococcus jannaschii) (UniProt Q59041). The data set is described as follows: SEC-MALS; 100 µl protein at 2.0 mg/ml on a Superose12 10/300 column in buffer N(250), 0.5 ml/min. Background: In gel filtration, larger molecules generally elute earlier.
Data set [3] has the same target. The data set is described as follows: native MS; nano-electrospray, protein exchanged into 0.5 M ammonium acetate, Synapt mass spectrometer.
The target in data set [4] is T2, MJ1647ΔTM (Methanocaldococcus jannaschii, UniProt Q59041 1-69, del70-96).
T2 sequence: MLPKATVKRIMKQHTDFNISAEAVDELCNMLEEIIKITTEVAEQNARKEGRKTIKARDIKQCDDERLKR
The data set can be described thus: EMSA; pattern identical to A3; EMSA: 50 nM DNA, 10 mM Tris/HCl pH 8.0, 222 mM NaCl, 0.4 mM TCEP, 0.1 mg/ml BSA, 5% glycerol, 37 C 15 min; agarose EMSA: same with 110 mM NaCl, no glycerol; TPM and bridging buffers not in the material. To be noted: protein: recombinant, tags: untagged, chain copies: 2, label: Cy3 (Methods), blunt.

In data set [5] the target is T3, A3 (Methanocaldococcus jannaschii, UniProt Q58655 1-67).
T3 sequence: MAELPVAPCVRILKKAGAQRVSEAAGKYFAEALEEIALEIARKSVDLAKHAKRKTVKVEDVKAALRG
The data set is described as follows: EMSA; single shifted species; EMSA: 50 nM DNA, 10 mM Tris/HCl pH 8.0, 222 mM NaCl, 0.4 mM TCEP, 0.1 mg/ml BSA, 5% glycerol, 37 C 15 min; agarose EMSA: same with 110 mM NaCl, no glycerol; TPM and bridging buffers not in the material. The conditions noted are these: protein: recombinant; tags: untagged; chain copies: 2; label: Cy3 (Methods); blunt.

Data set [6] concerns the molecule itself. The data set can be described thus: crystal structure; X-ray, 1.9 Å; crystals from 0.1 M NaOAc pH 4.6, 10% PEG3350, 5% tacsimate pH 4.6; four chains in the asymmetric unit as two dimers.
Data set [7] concerns the molecule itself. The data set can be described thus: cross-linking; BS3 (5 mM), 20 µM monomers, modified N(200) buffer with 10 mM HEPES/NaOH pH 7.5, 25 °C 40 min, SDS-PAGE with SYPRO-Orange; A3 alone, MJ1647 alone and co-expressed A3 and MJ1647; no DNA.
Data set [8] deals with the molecule itself. The data set can be described thus: SEC; elution profiles of purified wild-type MJ1647 and its charge-reversal and cysteine variants compared.
In data set [9] the target is T4, MJ1647 E95K (Methanocaldococcus jannaschii, UniProt Q59041 1-96, E95K).
T4 sequence: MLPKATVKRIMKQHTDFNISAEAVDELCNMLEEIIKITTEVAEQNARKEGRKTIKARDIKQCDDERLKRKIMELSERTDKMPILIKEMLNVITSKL
The data set is described as follows: EMSA; faster (dimer) complex at low, tetramer complex at higher protein; EMSA: 50 nM DNA, 10 mM Tris/HCl pH 8.0, 222 mM NaCl, 0.4 mM TCEP, 0.1 mg/ml BSA, 5% glycerol, 37 C 15 min; agarose EMSA: same with 110 mM NaCl, no glycerol; TPM and bridging buffers not in the material. To be noted: protein: recombinant; tags: untagged; chain copies: 2; label: Cy3 (Methods); 5'-32P for K80E and E95K; blunt.

Data set [10] concerns the target T5, MJ1647 K80E (Methanocaldococcus jannaschii, UniProt Q59041 1-96, K80E).
T5 sequence: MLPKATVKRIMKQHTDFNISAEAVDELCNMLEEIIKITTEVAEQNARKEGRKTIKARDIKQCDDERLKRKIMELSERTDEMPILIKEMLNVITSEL
The data set is described as above. The conditions noted are these: protein: recombinant; tags: untagged; chain copies: 2; label: Cy3 (Methods); 5'-32P for K80E and E95K; blunt.

Data set [11] addresses T1, MJ1647. The data set is described as follows: EMSA; single species; EMSA: 50 nM DNA, 10 mM Tris/HCl pH 8.0, 222 mM NaCl, 0.4 mM TCEP, 0.1 mg/ml BSA, 5% glycerol, 37 C 15 min; agarose EMSA: same with 110 mM NaCl, no glycerol; TPM and bridging buffers not in the material. To be noted: protein: recombinant; tags: untagged; chain copies: 4; label: Cy3 (Methods); 5'-32P for K80E and E95K; blunt.

In data set [12] the target is T3, A3. The data set can be described thus: EMSA; two species (one or two dimers); EMSA: 50 nM DNA, 10 mM Tris/HCl pH 8.0, 222 mM NaCl, 0.4 mM TCEP, 0.1 mg/ml BSA, 5% glycerol, 37 C 15 min; agarose EMSA: same with 110 mM NaCl, no glycerol; TPM and bridging buffers not in the material. The conditions noted are these: protein: recombinant; tags: untagged; chain copies: 2; label: Cy3 (Methods); 5'-32P for K80E and E95K; blunt.

Data set [13] concerns the molecule itself. The data set can be described thus: SEC-MALS; 100 µl protein at 2.0 mg/ml on a Superose12 10/300 column in buffer N(250), 0.5 ml/min.
The target in data set [14] is T6, histone variant MJ1647 from Methanocaldococcus jannaschii (Methanocaldococcus jannaschii (strain …, UniProt Q59041)).
T6 chain: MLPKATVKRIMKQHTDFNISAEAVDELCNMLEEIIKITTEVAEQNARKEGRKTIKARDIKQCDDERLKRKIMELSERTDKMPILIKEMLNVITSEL
The data set can be described thus: co-expression with SEC and BS3 cross-linking/SDS-PAGE.

Molecule 685 bp TPM/bridging substrate had a K half in [1] of 2500 nM. Turning to “MJ1647ΔTM, deletion variant of MJ1647 lacking the C-terminal 27 amino acids (from UniProt Q59041 1-96) (domain or fragment)”, the stoichiometry N in data set [2] and in [3] was 2 each time.

B1: 30 bp EMSA template (dsDNA)
DNA 1: CATACTGGTTCCAAAGCATGAAATAGTTCCAA
DNA 2: TTGGAACTATTTCATGCTTTGGAACCAGTATG
In the case of B1, the binding result in [4] and in data set [5] was “binds” in each case.

B2: histone variant MJ1647 from Methanocaldococcus jannaschii (natural protein)
chain: MLPKATVKRIMKQHTDFNISAEAVDELCNMLEEIIKITTEVAEQNARKEGRKTIKARDIKQCDDERLKRKIMELSERTDKMPILIKEMLNVITSEL
notes: histone paralogue MJ1647 of Methanocaldococcus jannaschii, histone fold followed by a C-terminal extension of 27 amino acids (tetramerisation module, TM); gene cloned into pET-21a(+) via NdeI and XhoI for expression of untagged protein; expected tetramer mass 44.8 kDa; Untagged; Tetramer in solution (SEC-MALS, native MS); crystallised as dimers at pH 4.6; also called wild-type MJ1647; WT MJ1647; …
Take B2: the “stoichiometry N” value is 2 in data set [6] and 4 in data set [7].

B3: MJ1647 C28S/C62S/K80C/E95C (double-cysteine variant) (natural protein, Methanocaldococcus jannaschii)
chain: MLPKATVKRIMKQHTDFNISAEAVDELSNMLEEIIKITTEVAEQNARKEGRKTIKARDIKQSDDERLKRKIMELSERTDCMPILIKEMLNVITSCL
modifications: disulfide bond between C80 and C95 of two chains (reduced only at 25 mM TCEP)
notes: MJ1647 of Methanocaldococcus jannaschii with C28S, C62S, K80C and E95C; also called double-cysteine substitution; source: E. coli, purified (as the wild type)
Take B3: the “stoichiometry N” value in data set [8] is 4.

B4: MJ1647 C28S/C62S/E95C (natural protein, Methanocaldococcus jannaschii)
chain: MLPKATVKRIMKQHTDFNISAEAVDELSNMLEEIIKITTEVAEQNARKEGRKTIKARDIKQSDDERLKRKIMELSERTDKMPILIKEMLNVITSCL
notes: MJ1647 of Methanocaldococcus jannaschii with C28S, C62S and E95C; also called single-cysteine substitution E95C; source: E. coli, purified (as the wild type)
In the case of B4, in data set [8], the “stoichiometry N” value was found to be 4.

B5: MJ1647 E95K charge-reversal mutant (natural protein, Methanocaldococcus jannaschii)
chain: MLPKATVKRIMKQHTDFNISAEAVDELCNMLEEIIKITTEVAEQNARKEGRKTIKARDIKQCDDERLKRKIMELSERTDKMPILIKEMLNVITSKL
notes: MJ1647 of Methanocaldococcus jannaschii with the substitution E95K; source: E. coli, purified (as the wild type; plasmid by site-directed mutagenesis or NEBuilder HiFi DNA assembly)
For the molecule B5, the binding result in data set [8] is “binds”.

B6: MJ1647 K80E/E95K double charge-reversal mutant (natural protein, Methanocaldococcus jannaschii)
chain: MLPKATVKRIMKQHTDFNISAEAVDELCNMLEEIIKITTEVAEQNARKEGRKTIKARDIKQCDDERLKRKIMELSERTDEMPILIKEMLNVITSKL
notes: MJ1647 of Methanocaldococcus jannaschii with the substitutions K80E and E95K; source: E. coli, purified (as the wild type; plasmid by site-directed mutagenesis or NEBuilder HiFi DNA assembly)
Take B6: in [8], the “stoichiometry N” value was found to be 4.

B7: MJ1647 C28S/C62S (cysteine-free background) (natural protein, Methanocaldococcus jannaschii)
chain: MLPKATVKRIMKQHTDFNISAEAVDELSNMLEEIIKITTEVAEQNARKEGRKTIKARDIKQSDDERLKRKIMELSERTDKMPILIKEMLNVITSEL
notes: MJ1647 of Methanocaldococcus jannaschii with its two cysteines replaced by serine (C28S, C62S); also called C28S/C62S variant; source: E. coli, purified (as the wild type)
Take B7: in data set [8], the “stoichiometry N” value turned out to be 4.

B8: MJ1647 C28S/C62S/K80C (natural protein, Methanocaldococcus jannaschii)
chain: MLPKATVKRIMKQHTDFNISAEAVDELSNMLEEIIKITTEVAEQNARKEGRKTIKARDIKQSDDERLKRKIMELSERTDCMPILIKEMLNVITSEL
notes: MJ1647 of Methanocaldococcus jannaschii with C28S, C62S and K80C; also called single-cysteine substitution K80C; source: E. coli, purified (as the wild type)
Consider B8, for which the “stoichiometry N” value in data set [8] came to 4.

B9: MJ1647 K80E charge-reversal mutant (natural protein, Methanocaldococcus jannaschii)
chain: MLPKATVKRIMKQHTDFNISAEAVDELCNMLEEIIKITTEVAEQNARKEGRKTIKARDIKQCDDERLKRKIMELSERTDEMPILIKEMLNVITSEL
notes: MJ1647 of Methanocaldococcus jannaschii with the substitution K80E; source: E. coli, purified (as the wild type; plasmid by site-directed mutagenesis or NEBuilder HiFi DNA assembly)
Take B9: the binding result in [8] is reported as “binds”.

B10: 60 bp EMSA template (dsDNA)
DNA 1: CATACTGGTTCCAAAGCATGAAATAGTTCCAAAAGAAGAAGTTGAGGAGTTTTGAAGAGA
DNA 2: TCTCTTCAAAACTCCTCAACTTCTTCTTTTGGAACTATTTCATGCTTTGGAACCAGTATG
As to B10, the binding result in data set [9] is reported as “binds”; in data set [10], “binds”; in [11], “binds”; in data set [4] (5'-32P for K80E and E95K), “binds”; in data set [12] it was “binds”.

B11: histone A3 (MJ1258) from Methanocaldococcus jannaschii (natural protein, UniProt Q58655 1-67, looked up)
chain: MAELPVAPCVRILKKAGAQRVSEAAGKYFAEALEEIALEIARKSVDLAKHAKRKTVKVEDVKAALRG
notes: canonical histone A3 of Methanocaldococcus jannaschii, gene MJ1258, cloned into pET-21a(+) via NdeI and XhoI for expression of untagged protein; expected dimer mass 14.5 kDa; Untagged; also called canonical histone A3; source: E. coli Rosetta 2(DE3), purified (heparin, SP Sepharose, SEC); also co-expressed with MJ1647 from pETDuet-1 in E. coli and purified in the same way
Take B11: the “stoichiometry N” value in [13] was 2. In addition, the binding result in [14] is “no binding”.

One may read the stoichiometry N as a count of units in the complex or per binding partner.
